These results are taken from the Immune Epitope Database (IEDB).

One assay concerns the target HLA-A*01:01. Kind of assay: IEDB peptide-MHC binding, purified MHC/competitive/radioactivity; filed as Kd, often an IC50 or EC50 that approximates it; ≥ and ≤ were set here for values at or beyond the usual limits of such assays.
Another assay deals with HLA-A*23:01. Described as above.
The target in another assay is HLA-A*24:02. The assay is described as above.
For the next assay, the target named is HLA-A*26:01. The assay is described as above.
A further assay addresses HLA-A*29:02. The assay is described as above.
In a further assay the target is HLA-A*30:02. Described as above.
The next assay has as its target HLA-A*02:01. Kind of assay: IEDB peptide-MHC binding, purified MHC/competitive/fluorescence; filed as Kd, often an IC50 or EC50 that approximates it; ≥ and ≤ were set here for values at or beyond the usual limits of such assays.
[1] abbreviates: source organism: SARS coronavirus Tor2.
The mark [2] stands for this setting: source organism: Mammarenavirus guanaritoense.
Where [3] appears, read: source organism: Mammarenavirus choriomeningitidis.
Setting [4] is: source organism: Triticum aestivum.
[5] abbreviates: source organism: Mammarenavirus whitewaterense.
[6] abbreviates: source organism: Mammarenavirus brazilense.
Where [7] appears, read: source organism: Mammarenavirus juninense.
Setting [8] is: source organism: Mammarenavirus lassaense.

A word on the Kd: it is the free concentration of one partner at which half of the binding sites on the other are occupied at equilibrium, for simple one-to-one binding.

On to LVAEMDGIQY, for which the Kd with HLA-A*01:01 (setting [1]) was 246 nM; with HLA-A*23:01 (setting [1]) it was at least 70000 nM; in the assay with HLA-A*24:02 (setting [1]), at least 70300 nM; in the assay with HLA-A*26:01 (setting [1]), 346 nM; in the assay with HLA-A*29:02 (setting [1]), 103 nM; with HLA-A*30:02 (setting [1]), 102 nM.

As to LYDANYFVCW, the Kd with HLA-A*01:01 (setting [1]) stood at 1130 nM; with HLA-A*23:01 (setting [1]) it was 24.5 nM; in the assay with HLA-A*24:02 (setting [1]) it was 55.4 nM; with HLA-A*26:01 (setting [1]), 9640 nM; in the assay with HLA-A*29:02 (setting [1]), 1440 nM; with HLA-A*30:02 (setting [1]), 13400 nM.

For MFSPIVPFW, the Kd is at least 78100 nM in the assay with HLA-A*01:01 (setting [1]); 29.2 nM with HLA-A*23:01 (setting [1]); 111 nM with HLA-A*24:02 (setting [1]); at least 77900 nM in the assay with HLA-A*26:01 (setting [1]); 95.1 nM with HLA-A*29:02 (setting [1]); at least 30300 nM with HLA-A*30:02 (setting [1]).

Consider MYEMHRESLL, for which the Kd turned out to be 870 nM in the assay with HLA-A*23:01 (setting [2]), 3170 nM with HLA-A*24:02 (setting [2]) and 9880 nM in the assay with HLA-A*29:02 (setting [2]).

With PDLKTIHNIL, the Kd was at least 70400 nM with HLA-A*01:01 (setting [3]), at least 69700 nM with HLA-A*26:01 (setting [3]) and 10300 nM with HLA-A*30:02 (setting [3]).

As for PYRVVVLSF, the dissociation constant Kd with HLA-A*01:01 (setting [1]) was 1480 nM; in the assay with HLA-A*23:01 (setting [1]) it was 20.8 nM; in the assay with HLA-A*24:02 (setting [1]), 100 nM; in the assay with HLA-A*26:01 (setting [1]), 1040 nM; with HLA-A*29:02 (setting [1]), 11500 nM; with HLA-A*30:02 (setting [1]), at least 93800 nM.

On to QFPGQQQPF, for which the Kd with HLA-A*01:01 (setting [4]) was at least 48900 nM; with HLA-A*23:01 (setting [4]), 19800 nM; in the assay with HLA-A*24:02 (setting [4]), 676 nM; with HLA-A*26:01 (setting [4]), at least 25900 nM; with HLA-A*29:02 (setting [4]), 1530 nM; with HLA-A*30:02 (setting [4]) it was 185 nM.

As for QVFLKMRRIF, the Kd in the assay with HLA-A*23:01 (setting [5]) was determined as 401 nM; with HLA-A*24:02 (setting [5]) it was 12300 nM; with HLA-A*29:02 (setting [5]), 9080 nM.

In the case of RLKGVTCRLF, the Kd with HLA-A*23:01 (setting [6]) came out at 98.3 nM; in the assay with HLA-A*24:02 (setting [6]) it was 719 nM; in the assay with HLA-A*29:02 (setting [6]) it was 395 nM.

Regarding RQMATTTNPL, the Kd with HLA-A*02:01 (source organism: Influenza A virus (A/parakeet/Chiba/1/97(H9N2))) was found to be 393 nM.

Sequence RTLLGLILFV registered a Kd with HLA-A*02:01 (source organism: Variola virus) of 1270 nM.

For RWTQSLRRGL, the Kd with HLA-A*23:01 (setting [7]) was 5300 nM; with HLA-A*24:02 (setting [7]), at least 70300 nM; in the assay with HLA-A*29:02 (setting [7]) it was 1280 nM.

With SFYSDPKRFF, the Kd with HLA-A*23:01 (setting [2]) was 226 nM; with HLA-A*24:02 (setting [2]) it was 740 nM; with HLA-A*29:02 (setting [2]), 124 nM.

As to SWFITQRNFF, the Kd turned out to be 828 nM with HLA-A*01:01 (setting [1]); 0.0458 nM with HLA-A*23:01 (setting [1]); 0.035 nM in the assay with HLA-A*24:02 (setting [1]); 12500 nM with HLA-A*26:01 (setting [1]); 53.2 nM with HLA-A*29:02 (setting [1]); 1030 nM with HLA-A*30:02 (setting [1]).

VFQAKSAFV: the Kd is at least 31400 nM with HLA-A*01:01 (setting [2]); 855 nM in the assay with HLA-A*23:01 (setting [2]); 1060 nM with HLA-A*24:02 (setting [2]); at least 77900 nM with HLA-A*26:01 (setting [2]); at least 78900 nM with HLA-A*29:02 (setting [2]); 1050 nM in the assay with HLA-A*30:02 (setting [2]).

VFYLYLTFYF: the Kd with HLA-A*01:01 (setting [1]) was determined as 566 nM; with HLA-A*23:01 (setting [1]) it was 0.0611 nM; with HLA-A*24:02 (setting [1]) it was 0.0798 nM; with HLA-A*26:01 (setting [1]), 621 nM; in the assay with HLA-A*29:02 (setting [1]), 0.0415 nM; with HLA-A*30:02 (setting [1]) it was 12400 nM.

Consider VMPLSAPTL, for which the Kd was at least 78100 nM with HLA-A*01:01 (setting [1]); 6450 nM with HLA-A*23:01 (setting [1]); 13300 nM with HLA-A*24:02 (setting [1]); at least 77900 nM in the assay with HLA-A*26:01 (setting [1]); 7050 nM with HLA-A*29:02 (setting [1]); at least 75000 nM with HLA-A*30:02 (setting [1]).

For YFESYVRPFV, the Kd with HLA-A*01:01 (setting [8]) was at least 70400 nM; with HLA-A*23:01 (setting [8]), 1890 nM; with HLA-A*24:02 (setting [8]), 12800 nM; with HLA-A*26:01 (setting [8]), at least 46100 nM; in the assay with HLA-A*29:02 (setting [8]), 3940 nM; in the assay with HLA-A*30:02 (setting [8]), 4250 nM.

On to YFTNDVSFL, for which the Kd in the assay with HLA-A*01:01 (setting [1]) was 12900 nM; in the assay with HLA-A*23:01 (setting [1]), 18300 nM; with HLA-A*24:02 (setting [1]), at least 78100 nM; with HLA-A*26:01 (setting [1]) it was 16100 nM; in the assay with HLA-A*29:02 (setting [1]) it was at least 75000 nM; with HLA-A*30:02 (setting [1]), at least 96800 nM.

As for YIAVNDKALY, the Kd with HLA-A*01:01 (setting [1]) is 12.9 nM; with HLA-A*23:01 (setting [1]) it was at least 55000 nM; with HLA-A*24:02 (setting [1]) it was at least 70300 nM; with HLA-A*26:01 (setting [1]), 2600 nM; with HLA-A*29:02 (setting [1]), 8.81 nM; in the assay with HLA-A*30:02 (setting [1]), 141 nM.

In the case of YVQRFFLRV, the Kd was 1020 nM in the assay with HLA-A*01:01 (setting [2]); 4270 nM with HLA-A*23:01 (setting [2]); at least 26600 nM with HLA-A*24:02 (setting [2]); at least 77900 nM with HLA-A*26:01 (setting [2]); 767 nM in the assay with HLA-A*29:02 (setting [2]); 732 nM with HLA-A*30:02 (setting [2]).
